Source: patent publication US20200299331A1
Bridge positions count the residues as written; N and C are the ends.

Biological target: TNF receptor (human)
Assay: cell-based or functional assay

concentration of IL-6 (pg/ml, n = 5) released from fresh human whole blood, AP301 at 1 ng/ml: < 0.5 pg/mL
concentration of IL-6 (pg/ml, n = 5) released from fresh human whole blood, AP301 at 3 ng/ml: < 0.5 pg/mL
concentration of IL-6 (pg/ml, n = 5) released from fresh human whole blood, AP301 at 1 mg/ml as printed: < 0.5 pg/mL
concentration of IL-6 (pg/ml, n = 5) released from fresh human whole blood, AP301 at 10 mg/ml as printed: < 0.5 pg/mL
B1: AP301 peptide (peptide)
peptide: H-CGQRETPEGAEAKPWYC-OH
modifications: bridge 1-17; also: cyclized via the Cys residues, disulfide given as preferred, bond type of batch not given here
